Results on 1 substance are retold here after patent US7105636B1.

This test concerns the target TGFβ receptor complex of wild type TβRII and kinase-deficient TβRI (KR) (Homo sapiens (Human)) (UniProt P37173). The experiment in a line: anti-Flag IP of [125I]TGFβ affinity-labelled receptors, gamma counting; reference: without Smad2.

Flag-tagged hSARA1: the fold enhancement of receptor binding by coexpressed Smad2 amounted to 2 fold.
